The Kd is the concentration at which binding is half-saturated. Read a high Kd as weaker binding.

Assay [1] addresses T1, 51G2 anti-DLL3 trispecific protein (CHO expressed, purified) (biotinylated).
T1 construct: also called 51G02
The experiment in a line: Octet BLI, biotinylated trispecific on streptavidin tips. In general terms: Biolayer interferometry detects binding as a change in optical thickness at a sensor tip.

Assay [2] addresses 51G10 anti-DLL3 trispecific protein (CHO expressed, purified) (biotinylated). The description is as above.
In assay [3] the target is DH43 anti-DLL3 trispecific protein. Description: Octet BLI, single 60 nM.
Sequence of DH43 anti-DLL3 trispecific protein (chain, as listed by the source): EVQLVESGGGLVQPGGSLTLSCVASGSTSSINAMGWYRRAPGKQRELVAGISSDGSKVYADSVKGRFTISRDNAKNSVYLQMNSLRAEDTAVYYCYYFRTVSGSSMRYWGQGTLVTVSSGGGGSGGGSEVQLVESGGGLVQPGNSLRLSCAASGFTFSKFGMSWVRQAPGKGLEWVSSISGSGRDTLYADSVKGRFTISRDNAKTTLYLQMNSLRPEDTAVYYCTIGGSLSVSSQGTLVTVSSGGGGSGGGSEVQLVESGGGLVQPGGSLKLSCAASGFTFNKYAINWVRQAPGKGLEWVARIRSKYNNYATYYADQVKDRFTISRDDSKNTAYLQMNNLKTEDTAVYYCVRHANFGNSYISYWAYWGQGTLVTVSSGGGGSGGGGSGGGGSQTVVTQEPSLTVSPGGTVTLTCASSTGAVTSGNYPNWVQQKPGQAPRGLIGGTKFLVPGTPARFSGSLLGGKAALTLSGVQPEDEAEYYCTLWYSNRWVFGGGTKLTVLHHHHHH
Assay [4] has as its target DH6 anti-DLL3 trispecific protein. The experiment in a line: Octet BLI, single 60 nM.
In assay [5] the target is T2, DLL3 targeting trispecific protein containing 52D04, anti-DLL3:anti-ALB:anti-CD3 (TAC) configuration.
T2 construct: also called DLL3-targeting TriTAC
T2 sequence (chain, as listed by the source): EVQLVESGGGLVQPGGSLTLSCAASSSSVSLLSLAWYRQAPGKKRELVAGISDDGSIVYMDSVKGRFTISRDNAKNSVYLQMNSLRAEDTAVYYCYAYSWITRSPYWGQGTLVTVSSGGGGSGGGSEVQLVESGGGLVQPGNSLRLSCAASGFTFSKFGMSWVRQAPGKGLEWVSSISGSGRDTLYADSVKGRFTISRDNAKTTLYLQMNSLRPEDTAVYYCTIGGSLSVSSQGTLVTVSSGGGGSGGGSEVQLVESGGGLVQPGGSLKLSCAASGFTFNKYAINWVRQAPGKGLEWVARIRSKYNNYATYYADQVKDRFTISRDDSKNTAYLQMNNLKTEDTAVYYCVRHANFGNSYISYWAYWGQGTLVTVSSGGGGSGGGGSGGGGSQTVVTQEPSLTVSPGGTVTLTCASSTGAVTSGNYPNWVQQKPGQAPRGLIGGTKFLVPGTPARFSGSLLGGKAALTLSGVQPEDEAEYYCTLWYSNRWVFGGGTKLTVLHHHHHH
Description: flow cytometry on NCI-H82, SHP77, DMS53, NCI-H2171 cells.

The target in assay [6] is T3, DLL3 targeting trispecific protein containing 52D04, anti-CD3:anti-ALB:anti-DLL3 (CAT) configuration.
T3 construct: also called DLL3-targeting TriTAC
T3 sequence (chain, as listed by the source): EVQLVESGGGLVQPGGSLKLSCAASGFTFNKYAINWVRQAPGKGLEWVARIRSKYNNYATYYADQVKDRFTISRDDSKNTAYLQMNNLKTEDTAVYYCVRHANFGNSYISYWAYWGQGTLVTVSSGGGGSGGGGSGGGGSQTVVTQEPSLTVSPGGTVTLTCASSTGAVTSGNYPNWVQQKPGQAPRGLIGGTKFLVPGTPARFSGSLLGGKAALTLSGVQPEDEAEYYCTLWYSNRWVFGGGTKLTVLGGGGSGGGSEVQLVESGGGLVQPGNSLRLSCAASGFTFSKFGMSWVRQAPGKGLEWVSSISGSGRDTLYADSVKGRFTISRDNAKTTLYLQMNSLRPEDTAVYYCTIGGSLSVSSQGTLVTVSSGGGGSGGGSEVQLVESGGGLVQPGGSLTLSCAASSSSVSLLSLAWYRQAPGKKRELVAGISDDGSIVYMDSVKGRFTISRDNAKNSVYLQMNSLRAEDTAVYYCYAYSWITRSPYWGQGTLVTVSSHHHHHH
The description is as above.

Sequence of 51G10 anti-DLL3 trispecific protein (CHO expressed, purified) (biotinylated) (chain, as listed by the source): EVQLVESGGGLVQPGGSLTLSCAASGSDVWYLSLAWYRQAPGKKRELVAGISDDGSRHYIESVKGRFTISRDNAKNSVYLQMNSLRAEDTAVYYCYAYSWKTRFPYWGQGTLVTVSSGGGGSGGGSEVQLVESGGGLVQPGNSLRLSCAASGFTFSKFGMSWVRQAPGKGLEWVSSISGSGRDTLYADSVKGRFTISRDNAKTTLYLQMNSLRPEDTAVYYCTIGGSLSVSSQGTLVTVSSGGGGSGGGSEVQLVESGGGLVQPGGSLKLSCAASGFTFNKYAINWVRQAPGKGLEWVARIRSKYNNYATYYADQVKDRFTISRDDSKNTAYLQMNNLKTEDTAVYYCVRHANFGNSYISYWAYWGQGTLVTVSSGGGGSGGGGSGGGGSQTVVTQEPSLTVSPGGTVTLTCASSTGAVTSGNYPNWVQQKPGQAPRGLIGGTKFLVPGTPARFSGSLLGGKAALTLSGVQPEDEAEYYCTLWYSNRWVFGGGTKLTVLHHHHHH
T1 sequence (chain, as listed by the source): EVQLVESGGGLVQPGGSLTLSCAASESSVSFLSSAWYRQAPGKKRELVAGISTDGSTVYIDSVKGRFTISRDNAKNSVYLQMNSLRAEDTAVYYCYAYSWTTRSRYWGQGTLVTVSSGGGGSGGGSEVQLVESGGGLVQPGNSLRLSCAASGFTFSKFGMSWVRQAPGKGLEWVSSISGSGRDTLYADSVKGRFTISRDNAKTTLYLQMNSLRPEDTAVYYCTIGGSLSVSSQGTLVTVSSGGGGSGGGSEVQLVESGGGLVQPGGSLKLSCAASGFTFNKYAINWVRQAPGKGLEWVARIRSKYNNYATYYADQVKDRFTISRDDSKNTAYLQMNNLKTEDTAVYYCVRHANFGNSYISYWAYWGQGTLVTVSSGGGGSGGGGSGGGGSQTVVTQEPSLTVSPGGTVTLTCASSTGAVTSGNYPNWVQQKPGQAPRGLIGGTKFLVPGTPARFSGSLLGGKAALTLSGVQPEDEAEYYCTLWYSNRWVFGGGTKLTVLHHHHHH
Sequence of DH6 anti-DLL3 trispecific protein (chain, as listed by the source): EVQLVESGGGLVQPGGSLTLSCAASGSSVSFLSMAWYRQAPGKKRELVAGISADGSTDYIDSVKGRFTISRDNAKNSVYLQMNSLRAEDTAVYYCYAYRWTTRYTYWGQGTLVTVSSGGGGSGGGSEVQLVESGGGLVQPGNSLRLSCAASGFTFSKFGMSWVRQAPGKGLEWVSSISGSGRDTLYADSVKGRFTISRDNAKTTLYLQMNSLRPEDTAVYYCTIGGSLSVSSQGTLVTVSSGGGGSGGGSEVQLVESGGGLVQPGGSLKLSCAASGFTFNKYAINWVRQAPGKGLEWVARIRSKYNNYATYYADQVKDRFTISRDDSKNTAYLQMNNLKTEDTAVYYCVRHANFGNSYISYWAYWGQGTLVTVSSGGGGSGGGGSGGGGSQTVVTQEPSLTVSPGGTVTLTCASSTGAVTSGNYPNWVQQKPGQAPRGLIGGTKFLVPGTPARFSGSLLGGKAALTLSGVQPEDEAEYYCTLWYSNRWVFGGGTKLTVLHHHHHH

B1: cynomolgus DLL3 (ligand)
chain: AGVFELQIHSFGPGPGGAPRSPYSARGPCRLFFRVCLKPGLSEEAAESPCALGAALSARGPVYTEQPEAPAPDLPLPNGLLQVPFRDAWPGTFSLIIETWREELGDQIGGPAWSLLARVTRRRRLAAGGPWAGDIQRAGAWELRFSYRARCELPAVGTACTRLCRPRSASRCGPGLRPCAPLEDECEAPPVCRAGCSLEHGFCEQPGECRCLEGWTGPLCMVPVSTSSCLGLRGPSSTTTGCLVPGPGPCDGNPCANGGSCSETPGSFECTCPRGFYGLRCEVSGVTCADGPCFNGGLCVGGADPDSAYICHCPPGFQGSNCEKRVDRCSLQPCRNGGLCLDLGHALRCRCRAGFAGPRCEHDLNDCAGRACANGGTCVEGGGAHRCSCALGFGGRDCRERADPCAARPCAHGGRCYAHFSGLVCACAPGYMGARCEFPVHPDGVSALPAAPPGLRPGDPQRYP
notes: also called cyDLL3
On to B1, for which the Kd was 1.4 to 3.4 nM in assay [1], 1.4 to 3.4 nM in assay [2], 8.5 nM in assay [3] and 10 nM in assay [4].

B2: human DLL3 on DLL3-expressing tumor cell lines (ligand)
chain: AGVFELQIHSFGPGPGPGAPRSPCSARLPCRLFFRVCLKPGLSEEAAESPCALGAALSARGPVYTEQPGAPAPDLPLPDGLLQVPFRDAWPGTFSFIIETWREELGDQIGGPAWSLLARVAGRRRLAAGGPWARDIQRAGAWELRFSYRARCEPPAVGTACTRLCRPRSAPSRCGPGLRPCAPLEDECEAPLVCRAGCSPEHGFCEQPGECRCLEGWTGPLCTVPVSTSSCLSPRGPSSATTGCLVPGPGPCDGNPCANGGSCSETPRSFECTCPRGFYGLRCEVSGVTCADGPCFNGGLCVGGADPDSAYICHCPPGFQGSNCEKRVDRCSLQPCRNGGLCLDLGHALRCRCRAGFAGPRCEHDLDDCAGRACANGGTCVEGGGAHRCSCALGFGGRDCRERADPCAARPCAHGGRCYAHFSGLVCACAPGYMGARCEFPVHPDGASALPAAPPGLRPGDPQRYLLPPALGLLVAAGVAGAALLLVHVRRRGHSQDAGSRLLAGTPEPSVHALPDALNNLRTQEGSGDGPSSSVDWNRPEDVDPQGIYVISAPSIYAREVATPLFPPLHTGRAGQRQHLLFPYPSSILSVK
notes: endogenous DLL3 of human cancer cell lines
Regarding B2, the binding result in assay [5] and in assay [6] was “binds” in each case.

The record behind these values is US20240141072A1 (published 2024).
